From paper PMC10761869 (Nature Communications, 2024)
Values belong to the molecule of their own block, whether it stands above or below them.

Columns and labels:
[1] = molecular target: Ssa1^TMR, TMR-labeled Ssa1(D430C) (yeast) (UniProt P10591); assay: FRET or BRET; 20 nM Bos1^BFL with 500 nM Ssa1^TMR, with or without 500 nM Ydj1, 5 min; excitation 485 nm; chased with cpSRP43 or a five-fold excess of unlabeled Ssa1
[2] = molecular target: (Sgt2-C258)XL2, BMH-crosslinked Sgt2-C258 dimer (UniProt Q12118); assay: cross-linking; Bos1^Bpa translated with 35S-methionine in S30 lysate in the presence of Sgt2 or Sgt2-C258; complexes purified via His6 on Sgt2, treated with 1 mM BMH; UV crosslinking, SDS-PAGE, autoradiography; time courses after adding 15–20 µM CaM (1 mM Ca(OAc)2) or 0.75 µM Get3 with 2 mM ATP, with or without 0.75 µM Get4/5
[3] = molecular target: His6-Sgt2 (wildtype Sgt2) (UniProt Q12118); assay: as above
[4] = molecular target: His6-Sgt2-G258C, not crosslinked (UniProt Q12118); assay: cross-linking; purified Sgt2-C258-TA^Bpa complex incubated with 1 mM BMH at RT, quenched with 10 mM DTT; anti-His immunoblot
[5] = molecular target: His6-Sgt2-G258C, not crosslinked (UniProt Q12118); assay: cross-linking; intradimer crosslink of Sgt2 single cysteine variants with the thiol-specific homo-bifunctional crosslinker bismaleimidohexane (BMH)
[6] = molecular target: Sgt2^BFL (His6-Sgt2-LPATGG labelled with BODIPY-FL at the C-terminus); assay: FRET or BRET; 50–150 nM purified Sgt2^BFL-TA^CM complex in GET buffer chased with 14–28 µM cpSRP43; recovery of donor fluorescence (excitation 360 nm, emission 460 nm); TA dissociation
[7] = molecular target: Sgt2^BFL (His6-Sgt2-LPATGG labelled with BODIPY-FL at the C-terminus); assay: as above; remark: listed apart in the source
[8] = molecular target: Sgt2^BFL (His6-Sgt2-LPATGG labelled with BODIPY-FL at the C-terminus); assay: FRET or BRET; 50–150 nM purified Sgt2^BFL-Bos1^CM complex in GET buffer chased with 2.5–30 µM CaM or with unlabeled Sgt2; recovery of donor fluorescence; intrinsic koff by extrapolation of the CaM concentration dependence to the Y-axis
[9] = molecular target: Bos1^Bpa, in vitro translated (Strep3-tagged, 35S-methionine); assay: pull-down + cross-linking; Bos1^Bpa translated in S30 extract in the presence of 2 µM His6-Sgt2 or Sgt2ΔN; pulldown on the strep3-tagged TA; UV crosslinking, autoradiography
[10] = molecular target: T1, His6-Sgt2 (wildtype Sgt2), Q12118
T1 chain: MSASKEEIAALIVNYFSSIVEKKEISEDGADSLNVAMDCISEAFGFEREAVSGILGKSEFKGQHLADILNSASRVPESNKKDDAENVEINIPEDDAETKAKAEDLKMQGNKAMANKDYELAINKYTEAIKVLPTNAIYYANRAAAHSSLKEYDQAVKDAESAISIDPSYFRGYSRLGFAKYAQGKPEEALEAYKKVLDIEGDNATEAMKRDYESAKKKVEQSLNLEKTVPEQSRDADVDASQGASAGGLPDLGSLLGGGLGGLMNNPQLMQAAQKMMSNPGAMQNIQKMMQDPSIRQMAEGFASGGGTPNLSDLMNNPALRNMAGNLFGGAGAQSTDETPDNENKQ

Ssa1 (tagless) = molecular target: T2, Ssa1 (tagless) (yeast, UniProt P10591 1-642); assay: pull-down; TA (0.3 µM) loaded on 3 µM Ssa1 with 2 mM ATP, with or without 3 µM Ydj1, then 0.6 µM His6-Sgt2; Talon resin, GET buffer (150 mM KOAc) with 5 mM imidazole wash; details: both partners purified
T2 construct: Ssa1, the major cytosolic Hsp70 in yeast; also called Hsp70; unlabeled Ssa1; source: recombinant His6-SUMO fusion, purified (Ni Sepharose, SUMO protease, MonoQ)

Ssa1 = molecular target: T3, Ssa1 (yeast, UniProt P10591 1-642); assay: pull-down; 0.6 µM His6-Sgt2 added for 1 min to a preformed Ssa1-TA complex (0.3 µM TA, 3 µM Ssa1, 2 mM ATP, with or without 3 µM Ydj1) in GET buffer; captured on Talon resin at 4 °C, washed with GET buffer + 5 mM imidazole, eluted with 300 mM imidazole; silver stain and anti-Strep western blot; details: both partners purified
T3 construct: Ssa1, the major cytosolic Hsp70 of yeast; also called Hsp70; source: recombinant His6-SUMO fusion, purified (Ni Sepharose, SUMO protease, MonoQ)
T3 sequence (P10591 whole entry, the tested form may be a part): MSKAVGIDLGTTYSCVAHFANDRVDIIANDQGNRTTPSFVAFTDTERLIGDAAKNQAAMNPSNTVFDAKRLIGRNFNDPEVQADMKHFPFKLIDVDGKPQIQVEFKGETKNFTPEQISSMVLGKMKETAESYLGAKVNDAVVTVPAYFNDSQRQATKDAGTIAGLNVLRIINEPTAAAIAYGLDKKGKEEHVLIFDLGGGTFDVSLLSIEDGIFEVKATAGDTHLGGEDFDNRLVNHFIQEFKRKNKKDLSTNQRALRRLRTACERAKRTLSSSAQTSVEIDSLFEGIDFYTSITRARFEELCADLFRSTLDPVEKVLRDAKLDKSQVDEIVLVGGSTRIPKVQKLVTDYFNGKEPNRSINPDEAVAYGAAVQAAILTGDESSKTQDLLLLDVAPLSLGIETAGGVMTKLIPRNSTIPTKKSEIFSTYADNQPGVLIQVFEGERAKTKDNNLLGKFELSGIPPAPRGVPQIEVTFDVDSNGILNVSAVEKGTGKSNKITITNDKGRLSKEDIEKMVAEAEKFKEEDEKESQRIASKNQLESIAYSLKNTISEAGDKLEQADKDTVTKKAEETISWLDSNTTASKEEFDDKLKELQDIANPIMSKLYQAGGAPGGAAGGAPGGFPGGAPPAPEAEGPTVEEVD

T2 sequence (P10591 whole entry, the tested form may be a part): as above

- koff, slow phase (~50% of the fluorescence change) [1]: 0.0005 s⁻¹
Molecule: Bos1^BFL (BFL-labeled Bos1)

- percent crosslinked by BMH (intradimer, in the complex with TA) [4]: 50%
- BMH crosslinking efficiency (intradimer) [5]: 46%
Molecule: His6-Sgt2-G258C, not crosslinked (from UniProt Q12118 1-346) (natural protein)

- percent of Bos1^Bpa crosslinked [9]: 6%
B1: His6-Sgt2ΔN (residues 96–346) (domain or fragment)
chain: AETKAKAEDLKMQGNKAMANKDYELAINKYTEAIKVLPTNAIYYANRAAAHSSLKEYDQAVKDAESAISIDPSYFRGYSRLGFAKYAQGKPEEALEAYKKVLDIEGDNATEAMKRDYESAKKKVEQSLNLEKTVPEQSRDADVDASQGASAGGLPDLGSLLGGGLGGLMNNPQLMQAAQKMMSNPGAMQNIQKMMQDPSIRQMAEGFASGGGTPNLSDLMNNPALRNMAGNLFGGAGAQSTDETPDNENKQ

- percent of Bos1^Bpa crosslinked [9]: > 43%
- binding result (Ssa1 (tagless)): binds
B3: His6-Sgt2 (wildtype Sgt2) (natural protein, UniProt Q12118 1-346, looked up)
chain: T1 chain
notes: Sgt2, cochaperone of the GET pathway; The functional rows were measured with Sgt2 doubly labelled with ATTO550/ATTO647N at the C-terminus (His6-Sgt2-LPATGG ligated to GGGC-dye by sortase A); also called Sgt2-WT; unlabeled Sgt2; source: cells lysed with BugBuster

Second part, the molecule before the results:

Molecule: Bos1^Bpa, in vitro translated (Strep3-tagged, 35S-methionine)
- rate constant of loss of the TA crosslink to (Sgt2-C258)XL2 on transfer to Get3 with Get4/5 [2]: 3.5 min⁻¹
- apparent rate constant of TA loss from Sgt2 to CaM (20 µM CaM) [3]: 0.78 min⁻¹

Molecule: Bos1^CM (Strep-SUMO-Bos1 labelled with coumarin)
- koff [6]: 0.000283 to 0.000317 s⁻¹
- koff [7]: 0.0003 s⁻¹
- apparent rate constant of Bos1 release from Sgt2 with 30 µM CaM [8]: 0.91 min⁻¹
- koff [8]: 0.0003 s⁻¹

B2: Strep-SUMO-Bos1 (model TA substrate Bos1), unlabelled (peptide)
chain: SEQTITSINKRVFKDKLVFWIALILLIIGIYYVLKWLR
modifications: not checked
- equilibrium of Sgt2 closing (K closing; µs-ALEX smFRET of doubly labelled Sgt2^ATTO550/ATTO647N, mpH2MM) in the purified Sgt2-TA complex; apo-Sgt2 0.221 [10]: 0.597

B4: His6-tagged wildtype Sgt2 (natural protein, S. cerevisiae (printed as ScSgt2), UniProt Q12118 1-346, looked up)
chain: T1 chain
notes: Sgt2 (ScSgt2); also called His6-Sgt2; His-Sgt2-WT
- binding result (Ssa1): binds
